# No end group written: not given here.
# T1: peptide NANP5, penta-NANP repeat (not fully specified; biotinylated)
# T1 construct: Printed only as the formula (NANP)5 / NANP5
# T1 peptide: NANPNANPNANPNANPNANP
# T2: NPDP19-KLH conjugate (Plasmodium falciparum, also: conjugated to KLH carrier via maleimide linker, site not given here)
# T2 construct: not shown: KLH carrier protein (about 390 kDa)
# T2 peptide: KQPADGNPDPNANPNVDPN
# Experiments:
# [1] = molecular target: T3, mature CIS43 antibody (IgG); assay: competition ELISA (MSD): peptide pre-incubated with CIS43, read-out CIS43 bound to plate-bound rPfCSP
# T3 construct: also called CIS43 WT
# T3 sequence (heavy, as listed by the source, chain 1 of 2): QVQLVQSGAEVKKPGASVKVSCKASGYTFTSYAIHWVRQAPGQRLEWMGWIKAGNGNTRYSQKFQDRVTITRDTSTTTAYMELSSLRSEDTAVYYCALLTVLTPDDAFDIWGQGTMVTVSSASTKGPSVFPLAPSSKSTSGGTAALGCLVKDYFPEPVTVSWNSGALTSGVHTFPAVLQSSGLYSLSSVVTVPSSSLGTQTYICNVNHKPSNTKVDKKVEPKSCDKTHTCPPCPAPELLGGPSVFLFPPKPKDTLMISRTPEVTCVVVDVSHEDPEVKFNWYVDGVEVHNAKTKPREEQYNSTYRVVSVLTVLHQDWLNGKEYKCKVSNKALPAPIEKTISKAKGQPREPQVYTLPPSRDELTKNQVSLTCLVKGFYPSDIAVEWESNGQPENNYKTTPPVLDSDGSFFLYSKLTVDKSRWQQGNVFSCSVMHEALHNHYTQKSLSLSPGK
# T3 sequence (light, as listed by the source, chain 2 of 2): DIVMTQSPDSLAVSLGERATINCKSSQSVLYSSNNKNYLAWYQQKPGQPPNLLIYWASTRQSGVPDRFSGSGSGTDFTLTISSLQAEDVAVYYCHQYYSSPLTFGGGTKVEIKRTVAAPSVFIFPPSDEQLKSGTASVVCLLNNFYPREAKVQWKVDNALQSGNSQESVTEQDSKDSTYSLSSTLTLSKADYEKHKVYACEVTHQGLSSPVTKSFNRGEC
# Method: Peptides were all 15 amino acids in length, overlapping by 11 residues, and numbered according to their position on the protein. Briefly, streptavidin-coated plates (Meso Scale Discovery, MSD) were blocked with 5% BSA in PBS for 30 min at room temperature (RT), washed five times (wash buffer, 0.05% Tween-20 in PBS), then coated with biotinylated-recombinant PfCSP (0.2 μg/mL, Genscript) in PBS with 1% BSA, and allowed to incubate for 1 h at RT. […] Plates were incubated for 1 h at RT, washed five times, then incubated for an additional 1 h at RT with 1 μg/mL of appropriate secondary (either anti-human or anti-mouse) IgG SULFO-TAG (Meso Scale Discovery) in PBS with 1% BSA/0.05% Tween-20. After washing, plates were read using 1×MSD Read T Buffer (Meso Scale Discovery) on an MSD SECTOR © Imager 6000 instrument.
# [2] = molecular target: T1, peptide NANP5, penta-NANP repeat; assay: BLI (Octet), Fab on biotinylated NANP5 peptide
# Method: (§1) Affinity measurements by BLI. Antibody Fab binding affinity to various ligands were measured using biolayer interferometry on an Octet Red384 instrument (fortdBio) with streptavidin capture biosensors (fortdBio) in solid black tilt-well 96-well plates (Geiger Bio-One). Assays were performed with agitation at 25° C. […] In all Octet measurements, parallel correction to subtract systematic baseline drift was carried out by subtracting the measurements recorded for a loaded sensor incubated in PBS. Data analysis was carried out using Octet software, version 9.0. Experimental data were fitted globally with a 1:1 Langmuir model of binding.
# [3] = molecular target: T4, recombinant Plasmodium falciparum circumsporozoite protein (rPfCSP), biotinylated (Plasmodium falciparum, UniProt P19597 21-375); assay: BLI (Octet), Fab on biotinylated rPfCSP; 2-component fit, primary KD
# T4 sequence (P19597 21-375 limits assumed): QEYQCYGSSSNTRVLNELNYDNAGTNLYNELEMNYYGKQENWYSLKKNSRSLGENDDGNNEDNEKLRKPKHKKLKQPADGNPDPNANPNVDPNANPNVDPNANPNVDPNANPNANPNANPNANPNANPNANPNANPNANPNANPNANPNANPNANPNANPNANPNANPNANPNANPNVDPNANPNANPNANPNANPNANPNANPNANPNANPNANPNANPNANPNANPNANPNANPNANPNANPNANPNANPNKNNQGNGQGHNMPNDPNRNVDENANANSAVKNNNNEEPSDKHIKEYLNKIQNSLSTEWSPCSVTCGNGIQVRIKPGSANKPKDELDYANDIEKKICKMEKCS
# Method: as §1
# [4] = molecular target: T4, recombinant Plasmodium falciparum …; assay: BLI (Octet), Fab on biotinylated rPfCSP; 2-component fit, second KD (KD2)
# Method: as §1
# NPDP19-KLH conjugate = molecular target: T2, NPDP19-KLH conjugate; assay: ELISA on NPDP19-KLH
Binder,binding result [1],Kd [2] [µM],Kd [3] [µM],Kd [4] [µM],binding result (NPDP19-KLH conjugate)
NANPNVDPNANPNAN (also called PfCSP peptide 44) [44: NANPNVDPNANPNAN],binds,,,,
NVDPNANPNANPNAN (also called PfCSP peptide 27) [27: NVDPNANPNANPNAN],binds,,,,
NANPNANPNVDPNAN (also called PfCSP peptide 43) [43: NANPNANPNVDPNAN],binds,,,,
"iGL-CIS43-HL.K28.m43.151 Fab (Fab, V domains shown, also called m43_HH28K.17) VH: QVHLVQSGAEVKKPGASVKVSCKASGYTFTSYAIHWVRQAPGQRLEWMGWIKGGNGNTRYSQKFQDRVTITRDTSASTAYMELSSLRSEDTAVYYCALLTVITPDDAFDIWGQGTMVTVSS VL: not shown",,0.715,0.0383,1.7,
"iGL-CIS43-HL.K28.m42.127 Fab (Fab, V domains shown, also called m42_HH28K.13) VH: QVQLVQSGAEVKKPGASVKVSCKASGYTFTSYAIHWVRQAPGQRLEWMGWIKAGNGNTRYSQKFQDRVTITRDTSASTAYMELSSLRSEDTAVYYCALLTVITPDDTFDIWGQGTMVTVSS VL: not shown",,0.952,0.0316,1.98,
"inferred germline CIS43 (iGL-CIS43) Fab (Fab, V domains shown, also called CIS43 gHgL; iGL-CIS43_UCA) VH: QVQLVQSGAEVKKPGASVKVSCKASGYTFTSYAMHWVRQAPGQRLEWMGWINAGNGNTKYSQKFQGRVTITRDTSASTAYMELSSLRSEDTAVYYCALLTVVTPDDAFDIWGQGTMVTVSS VL: not shown",,9.65,0.679,5.05,
"mature CIS43 Fab (Fab, V domains shown, also called CIS43 mature; CIS43 WT) VH: QVQLVQSGAEVKKPGASVKVSCKASGYTFTSYAIHWVRQAPGQRLEWMGWIKAGNGNTRYSQKFQDRVTITRDTSTTTAYMELSSLRSEDTAVYYCALLTVLTPDDAFDIWGQGTMVTVSS VL: not shown",,0.411,0.0452,1.33,
"inferred germline CIS43 (iGL-CIS43) mAb (IgG) (antibody, V domains shown, also called CIS43 gHgL; iGL-CIS43_UCA) VH: QVQLVQSGAEVKKPGASVKVSCKASGYTFTSYAMHWVRQAPGQRLEWMGWINAGNGNTKYSQKFQGRVTITRDTSASTAYMELSSLRSEDTAVYYCALLTVVTPDDAFDIWGQGTMVTVSS VL: not shown",,,,,binds
"m43.160 Fab (Fab, V domains shown, also called m43_HH28K.26) VH: QVQLVQSGAEVKKPGASVKVSCKASGYTFTSYAIHWVRQAPGQRLEWMGWIKAGNGNTRYSQKFQGRVTITRDTSASTAYMELSSLRSEDTAGYYCALLTVITPDDAFDIWGQGTMVTVSS VL: not shown",,0.957,0.0368,1.82,
